The source of these data is patent US8940299B2, “Method of treating cancer” (Case Western Reserve University, priority 2008, dated 2015).

For one data set, the system named is phospho-Ser473 AKT. Kind of data set: AKT phosphorylation in WT T cells stimulated with anti-CD3+anti-CD28 (immunoblot, Luminex). Format: cell-based, mouse. The conditions noted are these: 0.1 μM PI-103, 20 min. On the procedure: FIG. 5 illustrates immunoblots of A) anti-phospho-Ser473 AKT (rep of 5 exps) of WT T cells incubated with anti-CD3+anti-CD28±C5aR-A+C3aR-A (10 ng/ml each). B) anti-phospho-Ser473 AKT (rep of 5 exps) of WT or C5ar1−/−C3ar1−/− T cells incubated with anti-CD3+anti-CD28.
FIG. 6 illustrates C5aR and C3aR Ligation Activates PI3-Kγ, which in turn promotes AKT Phosphorylation. […] (p<0.05). […] (B) WT T cells were incubated at 37° C. with anti-CD3+anti-CD28 (1 μg/ml each) for 3 min after which the cells were incubated for 20 min with buffer or 0.1 μM PI-3Kγ-specific inhibitor PI-103. Extracts were immunoblotted with anti-phospho-Ser^473 AKT or total AKT mAb (representative of five experiments). (C) OT-II T cells were incubated with 0.1 μM OVA323-339, WT DCs, and 0.1 μM PI-103±10 ng/ml C5a. Complement, IL-2, and IFNγ mRNAs were quantitated by qPCR. All error bars are ±SD.
To test whether abrogated CD28 costimulation in the absence or blockade of C5aR+C3aR relates to a requirement for these GCPR signals for optimal AKT phosphorylation, we stimulated WT T cells with anti-CD3+anti-CD28±C5aR-A and C3aR-A and assessed AKT phosphorylation by immunoblotting (FIG. 5A) and Luminex assay (FIG. 6A).
Cells were stimulated for 1 hr with 1 μg/ml anti-CD3 and/or anti-CD28 (BD Biosciences) in serum-free RPMI 1640 for qPCR analyses and for 72 hr for IFNγ ELISPOT assays. […]

Data set [1] relates to Complement, IL-2, and IFNγ mRNAs. Kind of data set: qPCR of complement, IL-2 and IFNγ mRNAs in T cells with PI-103. Format: cell-based, mouse.
Method: To test whether this signaling pathway is operational in T cells, we incubated WT T cells with anti-CD3+anti-CD28 plus a specific inhibitor (PI-103) of PI-3Kγ.
We synthesized cDNAs by incubating 20 μl of mRNAs in Sprint PowerScript Single Shots (Clontech, Mountain View, Calif.). A total of 10 μl of diluted cDNA were mixed with 2 μl of primer and 10 μl SYBR green master mix (Applied Biosystems, Foster City, Calif.) and assayed in triplicate on an ABI prism 7000 cycler. In all assays, fold increases are relative to each basal level and standardized to Actin.
Another data set concerns EGF receptor (EGFR). Kind of data set: EGFR phosphorylation in the 3 tumor lines (immunoprecipitation, anti-phosphotyrosine immunoblot). It is filed as cell-based, murine. The source says:
(§1) Unregulated EGFR signaling has causally linked with certain cancers. Additionally, an earlier study in the literature reported that added C5a can induce EGFR phosphorylation in HeLa cells. Based on these two findings, we next asked whether EGFR phosphorylation in cancers cells is in fact dependent on C3aR/C5aR signal transduction. To do this, we cultured each of the 3 tumor lines in the presence of buffer alone, C5aR-A/C3aR-A and anti-C3a/anti-C5a mAb, or vehicle and nonrelevant mAb controls. After 2 hr, we added increasing amounts of EGF, 2 min after which we extracted the cells with NP-40 lysis buffer. We then immuoprecipitated EGFR from lysates with specific antibody and probed immunoblots of the precipitates with anti-phosphtyrosine mAb. […] To determine this C3aR/C5aR dependent step is an intermediary for EGFR phosphorylation, we repeated the above study this time using PI-103, a specific inhibitor of this enzyme. […] In a converse study, we incubated each of the 3 tumor lines without and with added C5a and measured cell growth.
Background: A western blot detects proteins with antibodies after separation by electrophoresis.

For the next data set, the system named is T cells. Kind of data set: In vitro T cell viability in serum-free HL-1 medium. It is filed as cell-based, mouse. The conditions noted are these: 300 ng/ml C5a added at time 0 and 90 min, both knockouts. On the procedure:
FIG. 7 illustrates constitutive C5a and C3a Production and Signaling via the C5aR and C3aR GPCRs Influences Cell Viability In Vitro and In Vivo. […] (B) WT and C5ar1^−/−, C3ar1^−/−, and C5ar1^−/− C3ar1^−/− T cells were incubated for 6 hr in serum-free HL-1 medium and viability assayed. (C) WT T cells were incubated at 37° C. for 6 hr in HL-1 medium±anti-C3a, anti-C5a, or anti-C3a+anti-C5a and viability assessed. (D) C3^−/− and C5-deficient T cells were incubated for 6 hr in HL-1 medium±300 ng/ml C5a added at time 0 and 90 min (E) Spleens from naive WT, C3ar1^−/−, C5ar1^−/−, and C3ar1^−/− C5ar1^−/− mice were isolated (three to five animals per group), total cell numbers were counted, and the CD3^+ fraction was determined by flow cytometry (WT=10%, C5ar1^−/−=5.4%, C3ar1^−/−=6.3, and C5ar1^−/− C3ar1^−/−=4.1%). (F) Immediately after isolation and labeling, 10^6 CFSE-labeled WT T cells and CellTracker Red CMTPX-labeled C5ar1^−/− C3ar1^−/− T cells were adoptively cotransferred into the same SCID mice (n=4 mice per group for each time point). […]
To test this possibility, we compared the survival of WT and C5ar1^−/− C3ar1^−/− T cells in vitro […]. […] Fewer surviving C5ar1^−/− C3ar1^−/− T cells were detected at 6 hr, confirming that disrupted autocrine signaling through both the C5aR and C3aR contributed to the decline (FIG. 7B). […]

The next data set has as its system B16/F10 (melanoma cell). Kind of data set: Cell growth after mouse C5a treatment in Opti-MEM. Format: cell-based, murine. The conditions noted are these: 100 nM C5a, 72 hr culture. Here is the method:
(§2) FIG. 2 illustrates graphs showing cell growth in 3 cancer cell lines (a) MCA 205 (fibrosarcoma), (b) B16 (melanoma cell), and (c) E0771 (breast cancer) after mouse C5a treatment in Opti-MEM media (serum-reduced media).
(§3) (a) MCA 205, (b) B16/F10 and (c) E0771. Data are representative of two experiments with duplicates. MCA 205 and E0771 were treated with 500 nM C5a and B16/F10 was treated with 100 nM C5a respectively.
(§4) Three kinds of cancer cell lines (B 16/F10, MCA 205 and E0771) were used for this experiment. Each cell line was cultured in 12-well plates (3×10^4/well) in serum reduced Opti-MEM media (Invitrogen) containing L-glutamine and penicillin+streptomycin for the indicated times (24 hr, 48 hr and 72 hr). C5a (Cell Sciences) in PBS was added in each well at 0, 24 and 48 hr time point to a final concentration 100 nM for B16/F10 and 500 nM for MCA205 and E0771 based on the preliminary experiment. At each time point (24 hr, 48 hr and 72 hr), live cells were trypsinized and counted using trypan blue (Invitrogen, Carlsbad, Calif.). Experiment was repeated two times with duplicates.

The test system of a further data set is E0771 (breast cancer). Kind of data set: Cell growth after mouse C5a treatment in Opti-MEM. Format: cell-based, murine. The conditions noted are these: 500 nM C5a, 72 hr culture. On the procedure: as §2, §3, §4
Another data set deals with MCA 205 (fibrosarcoma). Kind of data set: Cell growth after mouse C5a treatment in Opti-MEM. It is filed as cell-based, murine. The conditions noted are these: 500 nM C5a, 72 hr culture. On the procedure: as §2, §3, §4
The subject of a further data set is 3 tumor lines. Kind of data set: Cell growth of the 3 tumor lines without and with added C5a. It is filed as cell-based, murine. The note with it: all 3 tumor lines.
Text: as §1

The next data set deals with PI-3Kγ. Kind of data set: PI-3Kγ enzyme activity in immunoprecipitates of tumor lines with added C5a. Format: cell-based, murine. The conditions noted are these: PI-3Kγ immunoprecipitates.
Text: as §1

Consider `Oc1cccc(-c2nc(N3CCOCC3)c3oc4ncccc4c3n2)c1` [PI-103], for which the “anti-CD3+anti-CD28-induced phosphorylation of AKT” value with phospho-Ser473 AKT is listed as “abrogated”. For the same molecule, in [1] (0.1 μM PI-103), the “upregulation of IL-2 and IFNγ mRNA expression” value is “eliminated”; the “upregulation of complement gene expression” value was “prevented”. The “EGF induced EGFR phosphorylation” value in the data set with EGF receptor (EGFR) (3 tumor lines, 2 hr pre-treatment, increasing amounts of EGF for 2 min) is recorded as “inhibited EGFR phosphorylation in an identical fashion”.

B1: C5a: Murine C5a complement anaphylatoxin from Cell Sciences (protein)
chain: NLHLLRQKIEEQAAKYKHSVPKKCCYDGARVNFYETCEERVARVTIGPLCIRAFNECCTIANKIRKESPHKPVQLGR
Take B1: in [1] (0.1 μM PI-103 + 10 ng/ml C5a), the “overcoming of the suppressive effects of PI-103 by added C5a” value is “could not be overcome”. Further, the “augmentation of 6 hr viability of C5-deficient or C3−/− T cells” value with T cells was approximately 25%. The “cell survival in comparison with control” value with B16/F10 (melanoma cell), with E0771 (breast cancer) and with MCA 205 (fibrosarcoma) was “enhances cell survival” in each case. The EGFR phosphorylation entry in the data set with EGF receptor (EGFR) (anti-EGFR immunoprecipitates, added C5a) is “augmented EGFR phosphorylation”. Moreover, the tumor cell numbers result in the data set on 3 tumor lines is listed as “increased tumor cell numbers”. Moreover, the PI-3Kγ enzyme activity entry in the data set on PI-3Kγ was “augmented PI-3Kγ enzyme activity”.
